Laboratory results taken from paper PMC3458572.
Like-named read-outs stand apart in the source and are kept apart here.

What was measured:
Experiment in all cases: immunodepletion
[1] = molecular target: Xenopus laevis FANCD2, extract-endogenous, non-ubiquitinated (Xenopus laevis (endogenous in egg extract))
[2] = molecular target: Xenopus laevis FANCD2, extract-endogenous, non-ubiquitinated (Xenopus laevis (endogenous in egg extract)); remark: listed apart in the source
[3] = molecular target: Xenopus laevis FANCI, extract-endogenous (Xenopus laevis (endogenous in egg extract)) (UniProt D2JYR7)

percent co-depleted [1]	percent co-depleted [2]	percent co-depleted [3]	Substance
80%	80%	–	Xenopus laevis FANCI, extract-endogenous (from UniProt D2JYR7 1-1337) (natural protein)
–	–	80%	Xenopus laevis FANCD2, extract-endogenous, non-ubiquitinated (natural protein)
